Assay [1] has as its target T1, His-Gαi3 (UniProt P08753 1-354).
Assay [2] concerns the target T1, His-Gαi3. As to the kind of experiment: SEC.
The target in assay [3] is T1, His-Gαi3. As to the kind of experiment: cell-based or functional assay.

Consider 1 molecule from publication PMC3046063 (Molecular Biology of the Cell, 2011).

T1 sequence (P08753 whole entry): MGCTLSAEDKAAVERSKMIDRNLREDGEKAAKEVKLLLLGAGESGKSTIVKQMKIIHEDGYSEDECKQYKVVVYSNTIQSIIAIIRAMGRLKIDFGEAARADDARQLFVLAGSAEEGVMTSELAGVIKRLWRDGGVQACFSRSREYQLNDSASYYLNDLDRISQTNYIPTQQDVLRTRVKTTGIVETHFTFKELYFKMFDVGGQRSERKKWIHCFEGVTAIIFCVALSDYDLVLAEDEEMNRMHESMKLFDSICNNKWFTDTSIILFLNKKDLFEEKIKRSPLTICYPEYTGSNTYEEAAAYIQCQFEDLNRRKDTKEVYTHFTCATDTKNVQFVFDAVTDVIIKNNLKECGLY

B1: His-GIV-CTs (aa 1660–1870) (domain or fragment, UniProt Q3V6T2-3 1660-1870, looked up)
chain: SETLESRHHKIKTGSPGSEVVTLQQFLEESNKLTSVQIKSSSQENLLDEVMKSLSVSSDFLGKDKPVSCGLARSVSGKTPGDFYDRRTTKPEFLRPGPRKTEDTYFISSAGKPTPGTQGKIKLVKESSLSRQSKDSNPYATLPRASSVISTAEGTTRRTSIHDFLTKDSRLPISVDSPPAAADSNTTAASNVDKVQESRNSKSRSREQQSS
For B1, the Kd (as a rule, the free concentration of one partner at which half of the binding sites on the other are occupied at equilibrium, for simple one-to-one binding) in the assay with His-Gαi3 [1] is ~300 nM. Moreover, the “stoichiometry N” value with His-Gαi3 [2] is 1 His-Gαi3:His-GIV-CTs. In addition, the “steady-state GTPase activity of His-Gαi3 (50 nM) alone with 0-2 μM His-GIV-CTs” value with His-Gαi3 [3] is ~3 fold.
